{
  "source": "paper PMC11904967",
  "target": "pyruvate kinase PKM (PKM2), endogenous in PANC‐1 cells (human (endogenous in PANC-1)) (UniProt P14618)",
  "assay": "western blotting of monomers and dimers; AsPC-1 and PANC-1 cells transduced with HACD2 WT, HACD2 MUT or vector, or with HACD2 knockdown; how dimers were kept on the gel is not told",
  "data": [
    {"substance": "pyruvate kinase PKM (PKM2), endogenous in PANC‐1 cells, P14618 1-531 (natural protein; other documents disagree on this pair)", "values": [
      {"measurement": "stoichiometry N", "result": 2}
    ]}
  ]
}
